From patent US20240043505A1
Where two headings read alike, the source gives them in different places.

B1: Nb21 (VHH)
VHH: QVQLVESGGGLVQAGGSLRLSCAVSGLGAHRVGWFRRAPGKEREFVAAIGANGGNTNYLDSVKGRFTISRDNAKNTIYLQMNSLKPQDTAVYYCAARDIETAEYTYWGQGTQVTVSS
B2: Nb17 (VHH)
VHH: HVQLVESGGGLVQAGGSLRLSCAASGSIFSSNAMSWYRQAPGKQRELVASITSGGNADYADSVKGRFTISRDKNTVYPEMSSLKPADTAVYYCHAVGQEASAYAPRAYWGQGTQVTVSS

Key:
Conditions in all cases: remark: other sources report otherwise
A475V = biological target: A475V
K417N = biological target: K417N
N439K = biological target: N439K
N501Y = biological target: N501Y
Y453F = biological target: Y453F
[1] = biological target: T1, SARS-CoV-2 spike receptor-binding domain (RBD) (SARS-CoV-2), P0DTC2
[2] = biological target: T1, SARS-CoV-2 spike receptor-binding …; remark: listed apart in the source
[3] = biological target: T1, SARS-CoV-2 spike receptor-binding …; assay: SPR (Biacore 3000), RBD immobilised
[4] = biological target: T1, SARS-CoV-2 spike receptor-binding …; assay: indirect ELISA on coated RBD ('ELISA affinity')
[5] = biological target: T1, SARS-CoV-2 spike receptor-binding …; assay: ELISA; the sheet does not name the coated protein, the legend paragraph 51 says RBD
[6] = biological target: T1, SARS-CoV-2 spike receptor-binding …; remark: listed apart in the source

| Binder | binding affinity fold change relative to RBD WT (A475V) | binding affinity fold change relative to RBD WT (K417N) | binding affinity fold change relative to RBD WT (N439K) | binding affinity fold change relative to RBD WT (N501Y) | binding affinity fold change relative to RBD WT (Y453F) | EC50 (read off the curve) [1] | IC50 [2] | Kd [3] | koff [3] | kon [3] | IC50 [4] | EC50 (read off the curve) [5] | EC50 (read off the curve) [6] |
| --- | --- | --- | --- | --- | --- | --- | --- | --- | --- | --- | --- | --- | --- |
| B1 | -1.31 fold | -1.43 fold | 1.18 fold | -2.83 fold | 1.04 fold | 1000 pM | 420 pM | < 1 pM | < 1e-06 s⁻¹ | 3.79e+06 M⁻¹ s⁻¹ | 300 pM | 5000 pM | – |
| B2 | 1.16 fold | -1.2 fold | 1.33 fold | 1.5 fold | 1.61 fold | – | 690 pM | – | – | – | 450 pM | – | 1000 pM |
